These results are taken from patent US10130693B2, “Peptides, combination of peptides and scaffolds for use in immunotherapeutic treatment of various cancers” (Immatics Biotechnologies GmbH, priority 2015, dated 2018).

This experiment has as its target HLA-A*02:01 (Homo sapiens, UniProt P04439, D140Y/D185E/D98H/E176V/E277Q/G131W/G231S/I119V/I121R/I166T/I218V/L300P/L318F/N151K/N90K/P208A/P217A/Q86G/Q94H/R138H/R169H/T345S). As to the kind of experiment: MHC binding assay, UV-ligand exchange with beta2m ELISA (exchange yield), HLA-A*02. The settings on record: binding to HLA-A*02 ranged by peptide exchange yield. The text has this:
Candidate peptides for T cell based therapies according to the present invention were further tested for their MHC binding capacity (affinity). The individual peptide-MHC complexes were produced by UV-ligand exchange, where a UV-sensitive peptide is cleaved upon UV-irradiation, and exchanged with the peptide of interest as analyzed. Only peptide candidates that can effectively bind and stabilize the peptide-receptive MHC molecules prevent dissociation of the MHC complexes. To determine the yield of the exchange reaction, an ELISA was performed based on the detection of the light chain (β2m) of stabilized MHC complexes. The assay was performed as generally described in Rodenko et al. (Rodenko et al., 2006).
96 well MAXISorp plates (NUNC) were coated over night with 2 ug/ml streptavidin in PBS at room temperature, washed 4× and blocked for 1 h at 37° C. in 2% BSA containing blocking buffer. […] Peptide-MHC monomers of the UV-exchange reaction were diluted 100 fold in blocking buffer. Samples were incubated for 1 h at 37° C., washed four times, incubated with 2 ug/ml HRP conjugated anti-β2m for 1h at 37° C., washed again and detected with TMB solution that is stopped with […]. Absorption was measured at 450 nm. Candidate peptides that show a high exchange yield (preferably higher than 50%, most preferred higher than 75%) are generally preferred for a generation and production of antibodies or fragments thereof, and/or T cell receptors or fragments thereof, as they show sufficient avidity to the MHC molecules and prevent dissociation of the MHC complexes.
Background: An ELISA detects its analyte on a solid surface through an enzyme-linked reagent.
As for “42 (VLSPFILTL; listed as Homo sapiens) [compound 42]”, the “Peptide exchange (MHC class I binding score)” value (“Peptide exchange” below) is “+++ (50%-75% = +++)”.

“44 (GLLWQIIKV; listed as Homo sapiens) [compound 44]”: the “Peptide exchange” value is “++ (20%-49% = ++)”.

Take “45 (VLGPTPELV; listed as Homo sapiens) [compound 45]”: the “Peptide exchange” value is “+++ (50%-75% = +++)”.

On to “46 (SLAKHGIVAL; listed as Homo sapiens) [compound 46]”, for which the “Peptide exchange” value is reported as “+++ (50%-75% = +++)”.

“47 (GLYQAQVNL; listed as Homo sapiens) [compound 47]”: the “Peptide exchange” value was “+++ (50%-75% = +++)”.

As for “48 (TLDHKPVTV; listed as Homo sapiens) [compound 48]”, the “Peptide exchange” value is recorded as “++ (20%-49% = ++)”.

For the substance “49 (LLDESKLTL; listed as Homo sapiens) [compound 49]”, the “Peptide exchange” value was “+++ (50%-75% = +++)”.

“50 (EYALLYHTL; listed as Homo sapiens) [compound 50]”: the “Peptide exchange” value is “++ (20%-49% = ++)”.

“51 (LLLDGDFTL; listed as Homo sapiens) [compound 51]”: the “Peptide exchange” value was “+++ (50%-75% = +++)”.

For the substance “52 (ELLSSIFFL; listed as Homo sapiens) [compound 52]”, the “Peptide exchange” value was “+++ (50%-75% = +++)”.

As for “53 (SLLSHVIVA; listed as Homo sapiens) [compound 53]”, the “Peptide exchange” value is on record as “+++ (50%-75% = +++)”.

Consider “54 (FINPKGNWLL; listed as Homo sapiens) [compound 54]”, for which the “Peptide exchange” value was “+++ (50%-75% = +++)”.

Regarding “55 (IASAIVNEL; listed as Homo sapiens) [compound 55]”, the “Peptide exchange” value is listed as “++ (20%-49% = ++)”.

For “56 (KILDLTRVL; listed as Homo sapiens) [compound 56]”, the “Peptide exchange” value was “++ (20%-49% = ++)”.

Take “57 (VLISSTVRL; listed as Homo sapiens) [compound 57]”: the “Peptide exchange” value is “++ (20%-49% = ++)”.

For “58 (ALDDSLTSL; listed as Homo sapiens) [compound 58]”, the “Peptide exchange” value was “++ (20%-49% = ++)”.

In the case of “59 (ALTKILAEL; listed as Homo sapiens) [compound 59]”, the “Peptide exchange” value is on record as “+++ (50%-75% = +++)”.

For “60 (FLIDTSASM; listed as Homo sapiens) [compound 60]”, the “Peptide exchange” value is recorded as “++ (20%-49% = ++)”.

Regarding “61 (HLPDFVKQL; listed as Homo sapiens) [compound 61]”, the “Peptide exchange” value is given as “++ (20%-49% = ++)”.

In the case of “62 (SLFNQEVQI; listed as Homo sapiens) [compound 62]”, the “Peptide exchange” value was “+++ (50%-75% = +++)”.

Turning to “63 (TLSSERDFAL; listed as Homo sapiens) [compound 63]”, the “Peptide exchange” value was “+ (<20% = +)”.

Consider “64 (GLSSSSYEL; listed as Homo sapiens) [compound 64]”, for which the “Peptide exchange” value is listed as “++ (20%-49% = ++)”.

For the substance “65 (KLDGICWQV; listed as Homo sapiens) [compound 65]”, the “Peptide exchange” value was “+++ (50%-75% = +++)”.

On to “66 (FITDFYTTV; listed as Homo sapiens) [compound 66]”, for which the “Peptide exchange” value was “+++ (50%-75% = +++)”.

Take “67 (GVIETVTSL; listed as Homo sapiens) [compound 67]”: the “Peptide exchange” value is on record as “++ (20%-49% = ++)”.

Consider “69 (GIYDGILHSI; listed as Homo sapiens) [compound 69]”, for which the “Peptide exchange” value is reported as “+++ (50%-75% = +++)”.

On to “70 (GLFSQHFNL; listed as Homo sapiens) [compound 70]”, for which the “Peptide exchange” value is recorded as “+++ (50%-75% = +++)”.

For “71 (GLITVDIAL; listed as Homo sapiens) [compound 71]”, the “Peptide exchange” value was “+++ (50%-75% = +++)”.

On to “72 (GMIGFQVLL; listed as Homo sapiens) [compound 72]”, for which the “Peptide exchange” value was “+++ (50%-75% = +++)”.

With “74 (ILDETLENV; listed as Homo sapiens) [compound 74]”, the “Peptide exchange” value is listed as “++ (20%-49% = ++)”.

Regarding “75 (ILDNVKNLL; listed as Homo sapiens) [compound 75]”, the “Peptide exchange” value is “+++ (50%-75% = +++)”.

With “76 (ILLDESNFNHFL; listed as Homo sapiens) [compound 76]”, the “Peptide exchange” value is “+++ (50%-75% = +++)”.

Take “77 (IVLSTIASV; listed as Homo sapiens) [compound 77]”: the “Peptide exchange” value was “+++ (50%-75% = +++)”.

For the substance “78 (LLWGHPRVA; listed as Homo sapiens) [compound 78]”, the “Peptide exchange” value was “+++ (50%-75% = +++)”.

In the case of “79 (SLVPLQILL; listed as Homo sapiens) [compound 79]”, the “Peptide exchange” value is “++++ (>=75% = ++++)”.

“80 (TLDEYLTYL; listed as Homo sapiens) [compound 80]”: the “Peptide exchange” value is “+++ (50%-75% = +++)”.

“81 (VLFLGKLLV; listed as Homo sapiens) [compound 81]”: the “Peptide exchange” value is reported as “++ (20%-49% = ++)”.

On to “82 (VLLRVLIL; listed as Homo sapiens) [compound 82]”, for which the “Peptide exchange” value is on record as “++ (20%-49% = ++)”.

For the substance “83 (ELLEYLPQL; listed as Homo sapiens) [compound 83]”, the “Peptide exchange” value is “+++ (50%-75% = +++)”.

As to “84 (FLEEEITRV; listed as Homo sapiens) [compound 84]”, the “Peptide exchange” value is “+++ (50%-75% = +++)”.

As to “85 (STLDGSLHAV; listed as Homo sapiens) [compound 85]”, the “Peptide exchange” value was “+++ (50%-75% = +++)”.

Consider “87 (YLTEVFLHVV; listed as Homo sapiens) [compound 87]”, for which the “Peptide exchange” value is “+++ (50%-75% = +++)”.

With “88 (ILLNTEDLASL; listed as Homo sapiens) [compound 88]”, the “Peptide exchange” value was “+++ (50%-75% = +++)”.

As for “89 (YLVAHNLLL; listed as Homo sapiens) [compound 89]”, the “Peptide exchange” value is recorded as “+++ (50%-75% = +++)”.

For “90 (GAVAEEVLSSI; listed as Homo sapiens) [compound 90]”, the “Peptide exchange” value is on record as “+ (<20% = +)”.

On to “91 (SSLEPQIQPV; listed as Homo sapiens) [compound 91]”, for which the “Peptide exchange” value is given as “+ (<20% = +)”.

Take “92 (LLRGPPVARA; listed as Homo sapiens) [compound 92]”: the “Peptide exchange” value is reported as “++ (20%-49% = ++)”.

Regarding “93 (SLLTQPIFL; listed as Homo sapiens) [compound 93]”, the “Peptide exchange” value is recorded as “+++ (50%-75% = +++)”.

As for “321 (SLWFKPEEL; listed as Homo sapiens) [compound 321]”, the “Peptide exchange” value was “+++ (50%-75% = +++)”.

With “323 (ILSVVNSQL; listed as Homo sapiens) [compound 323]”, the “Peptide exchange” value is “+++ (50%-75% = +++)”.

Take “324 (AIFDFCPSV; listed as Homo sapiens) [compound 324]”: the “Peptide exchange” value was “++++ (>=75% = ++++)”.

With “325 (RLLPKVQEV; listed as Homo sapiens) [compound 325]”, the “Peptide exchange” value is listed as “++ (20%-49% = ++)”.

“326 (SLLPLVWKI; listed as Homo sapiens) [compound 326]”: the “Peptide exchange” value was “+++ (50%-75% = +++)”.

“327 (SIGDIFLKY; listed as Homo sapiens) [compound 327]”: the “Peptide exchange” value is “+++ (50%-75% = +++)”.

Regarding “328 (SVDSAPAAV; listed as Homo sapiens) [compound 328]”, the “Peptide exchange” value is recorded as “++ (20%-49% = ++)”.

On to “329 (FAWEPSFRDQV; listed as Homo sapiens) [compound 329]”, for which the “Peptide exchange” value is reported as “++ (20%-49% = ++)”.

Consider “330 (FLWPKEVEL; listed as Homo sapiens) [compound 330]”, for which the “Peptide exchange” value is “+++ (50%-75% = +++)”.

Consider “333 (GTFLEGVAK; listed as Homo sapiens) [compound 333]”, for which the “Peptide exchange” value is “+++ (50%-75% = +++)”.

Regarding “334 (GRADALRVL; listed as Homo sapiens) [compound 334]”, the “Peptide exchange” value is on record as “+++ (50%-75% = +++)”.

Regarding “335 (VLLAAGPSAA; listed as Homo sapiens) [compound 335]”, the “Peptide exchange” value is on record as “++ (20%-49% = ++)”.

Consider “336 (GLMDGSPHFL; listed as Homo sapiens) [compound 336]”, for which the “Peptide exchange” value is given as “++ (20%-49% = ++)”.
